Legend:
[1] = molecular target: T1, recombinant human PD-1-Fc (human, UniProt Q15116 25-167); test: competition ELISA; blocking PD-1/PD-L2
[2] = molecular target: T1, recombinant human PD-1-Fc; test: competition ELISA; blocking PD-1/PD-L1
[3] = molecular target: recombinant human PD-1 (product No. 10377-H08H, Beijing Yiqiao Shenzhou) (human, UniProt Q15116 25-167); test: ELISA
Chain of recombinant human PD-1 (product No. 10377-H08H, Beijing Yiqiao Shenzhou) (Q15116 25-167): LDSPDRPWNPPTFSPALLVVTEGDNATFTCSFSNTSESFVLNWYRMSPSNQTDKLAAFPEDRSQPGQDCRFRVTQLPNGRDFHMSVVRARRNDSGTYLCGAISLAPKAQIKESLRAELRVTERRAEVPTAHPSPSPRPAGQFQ

T1 sequence (Q15116 25-167): as above

IC50 [1]: 2.89 nM | IC50 [2]: 2.71 nM | EC50 [3]: 0.18 nM
B1: PD-1 monoclonal antibody (antibody, V domains shown)
VH: QVQLVQSGAEVKKPGSSVKVSCKASGGTFSSTAISWVRQAPGQGLEWMGGIWPSFGTASYAQKFQGRVTITADESTSTAYMELSSLRSEDTAVYYCARAEYSSTGIFDYWGQGTLVTVSS
VL: DIQMTQSPSSVSASVGDRVTITCRASQGISSWLAWYQQKPGKAPKLLISAASSLQSGVPSRFSGSGSGTDFTLTISSLQPEDFATYYCQQANHLPFTFGGGTKVEIK

— patent US20210032343A1 (published 2021)
